The text below walks through data of patent US20150148405A1, “Expression Construct for a Lin28-Resistant Let-7 Precursor MicroRNA” (THE JOHNS HOPKINS UNIVERSITY, priority 2012, published 2015).

Common to all, as to format: cell-based, mouse
Experiment [1] deals with hippocampal pyramidal neurons. Nature of the experiment: Live cell imaging of P-body numbers (GFP-Dcp1a). Conditions: BDNF-stimulated vs mock, GFP-Dcp1a live imaging, in presence of Actinomycin-D. As for the experimental part: Dissociated hippocampal cultures were prepared from postnatal day 0 (P0) mice as previously described (Meffert et al., 2003). Knockdown was by lentiviral-mediated delivery of shRNA to cultures at multiplicity of infection of 5-10, 48 hr before imaging or 4-5 days for GW182. Cultures were preincubated 10-20 min and mock- or BDNF-stimulated (100 ng/mL BDNF) in the presence of Actinomycin-D (0.5 μg/mL), unless indicated otherwise.
Confocal images of hippocampal pyramidal neurons were acquired on either a Yokogawa spinning disk (Zeiss) at 37° C. (live cells), or a LSM5 Pascal system (fixed cells). Laser power and exposure time were adjusted to minimize photobleaching and avoid saturation. […]
Dissociated hippocampal cultures were prepared from postnatal day 0 (P0) mice as previously described (Meffert et al., 2003) and were maintained in Neurobasal A medium (Gibco, 10888) with B27 Supplement (Gibco 17504-44). […] For live cell imaging, confocal images of hippocampal pyramidal neurons (excitatory, determined by morphology) in 0.24-0.3 μm Z sections were acquired using a 40×, 1.3 NA, EC Plan Neofluoar (whole cells) or a 100×, 1.4 NA Plan Apochromat oil immersion objective (dendrites) on a Yokogawa spinning disk system (Cell Observer, Carl Zeiss) at 37° C. in Tyrodes buffer (in mM: 119 NaCl, 5 KCl, 2 CaCl2, 0.2 MgCl2, Glucose, 25 Hepes, 0.01 Glycine, pH 7.4). […]

The next experiment concerns Dicer. Nature of the experiment: Immunoblotting for Dicer. The settings on record: BDNF-stimulated neurons, Actinomycin-D. As for the experimental part:
Primary cultures of mouse hippocampal neurons (DIV 14 15) were incubated in serum-reduced medium (0.5% B27 supplement) for 2 hours, followed by […] Actinomycin-D for 10-20 min. Bath application of BDNF (100 ng/mL) was for designated periods (5 min-2 hours). The cultures were washed 3 times and harvested on ice with lysis buffer (50 mM Hepes, 150 mM NaCl, 10% Glycerol, 1 mM EDTA, 1% Triton-X-100, 0.2% SDS) plus freshly added protease inhibitor cocktail (Roche) and PMSF. Protein concentration was determined by Bradford Assay. If required, lysates were treated with Lambda Protein Phosphatase according to manufacturer's instructions (New England Biolabs […]). Equal amounts of lysate protein were resolved on SDS-PAGE gels, and electrotransferred to PVDF membrane. […]
A general note: In western blotting, separated proteins are transferred to a membrane and probed.

The next experiment relates to Let-7a. Nature of the experiment: Northern blot of pre- and mature Let-7a. The settings on record: BDNF-treated (30 min) neurons. The procedure: (§1) Northern blots were carried out as described (Hwang et al., 2007), using the following LNA probes from Exiqon: Let-7a (5′ […] 3′; SEQ ID NO: 1), pre-Let-7a (5′ GTGGGTGTGACCCTA 3′; SEQ ID NO: 2), miR-17 (5′ […] 3′; SEQ ID NO: 3) and quantified by phosphoimaging.

In another experiment the test system is miR-17. Kind of experiment: Northern blot of control miRNA miR-17. Conditions: BDNF-treated (30 min) neurons. The procedure: as §1

B1: BDNF: brain-derived neurotrophic factor, a neurotrophin used to stimulate hippocampal neurons (protein, UniProt P23560 19-247, looked up)
Neurotrophic factor BDNF …: APMKEANIRGQGGLAYPGVRTHGTLESVNGPKAGSRGLTSLADTFEHVIEELLDEDQKVRPNEENNKDADLYTSRVMLSSQVPLEPPLLFLLEEYKNYLDAANMSMRVRRHSDPARRGELSVCDSISEWVTAADKKTAVDMSGGTVTVLEKVPVSKGQLKQYFYETKCNPMGYTKEGCRGIDKRHWNSQCRTTQSYVRALTMDSKKRIGWRFIRIDTSCVCTLTIKRGR
In the case of B1, the “number of dendritic and somatic P-bodies” value in experiment [1] was “rapid and robust increase in the number of both dendritic and somatic P-bodies”. Also, in the experiment on Dicer, the Dicer levels result is recorded as “marked transcription-independent increase in Dicer levels” and the “time of peak Dicer levels after stimulation” value lay within 5 to 20 min. In addition, in the experiment with Let-7a, the “pre-Let7 and mature Let-7 miRNA levels” value is given as “significant decreases”. In the experiment on miR-17, the “mature miR-17 level” value is on record as “modestly increased”.
